Reference: the supplement of paper PMC10219994
± gives the standard deviation of the averaged measurements.

B1: library; a variant is named by its letters at N, in order (parent)
chain: GAGACCGCAACTGAAAAGTTGTGGNNNNNATAGTGAGTCGCTGCCTGCAAAGACACAACT

Variants of: B1
Assay: ligation selection enrichment (abundance after / before one-round selection) (fold); higher = more template-directed ligation activity
Details: with T7Psub CACGGAUGCUAAUACGACUCACUAUA; MgCl2 25 mM; 42 °C; 4 h; pH 8.5
How it was run: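 In each of two independent experiments, 6 μM RNA substrate was reacted for 4 h at 42 °C with 0.75 μM of a T7-transcribed RNA ligase library randomized at five core positions, in buffer containing 50 mM EPPS pH 8.5 and 25 mM MgCl2. Only reads scoring ≥30 in quality at all randomized positions were counted after MiSeq sequencing. Each enrichment value is the ratio of abundance after ligation to abundance before ligation.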
Variant TTAAC has a ligation selection enrichment of 0.52 ± 0.0073.
ATAGT gave a ligation selection enrichment of 0.17 ± 0.01.
In the case of ATAGG, the ligation selection enrichment is reported as 0.3 ± 0.012.
For ATAGC, the ligation selection enrichment was 0.131 ± 0.033.
Work on ATAGA yielded a ligation selection enrichment of 0.543 ± 0.062.
TTGCT showed a ligation selection enrichment of 0.947 ± 0.32.
TTGCC showed a ligation selection enrichment of 0.231 ± 0.025.
TTGCG showed a ligation selection enrichment of 0.391 ± 0.012.
TTGCA gave a ligation selection enrichment of 0.683 ± 0.015.
CTTAA was tested, and the ligation selection enrichment was 0.257 ± 0.012.
Variant CTTAC has a ligation selection enrichment of 0.153 ± 0.015.
For GTCTT, the ligation selection enrichment was 0.114 ± 0.069.
GTCTC gave a ligation selection enrichment of 0.116 ± 0.027.
Variant GTCTG has a ligation selection enrichment of 0.554 ± 0.068.
For GTCTA, the ligation selection enrichment was 0.177 ± 0.024.
With GGTTA the ligation selection enrichment was 0.477 ± 0.095.
Work on GGTTG yielded a ligation selection enrichment of 3.91 ± 0.67.
Work on GGTTT yielded a ligation selection enrichment of 0.452 ± 0.082.
GGTTC gave a ligation selection enrichment of 0.216 ± 0.015.
For GTCCT, the ligation selection enrichment was 0.266 ± 0.14.
GTCCA gave a ligation selection enrichment of 0.148 ± 0.0086.
With GTCCG the ligation selection enrichment was 0.529 ± 0.022.
Variant GTCCC has a ligation selection enrichment of 0.151 ± 0.0044.
Variant ATAAT has a ligation selection enrichment of 2.48 ± 0.27.
ATAAC gave a ligation selection enrichment of 0.204 ± 0.038.
Variant ATAAG has a ligation selection enrichment of 0.373 ± 0.099.
With ATAAA the ligation selection enrichment was 0.228 ± 0.05.
TGTCC was tested, and the ligation selection enrichment was 0.338 ± 0.055.
For TGTCG, the ligation selection enrichment was 0.653 ± 0.0083.
TGTCA showed a ligation selection enrichment of 0.325 ± 0.025.
For TGTCT, the ligation selection enrichment was 0.335 ± 0.099.
Variant TTGGA has a ligation selection enrichment of 0.294 ± 0.0019.
TTGGT gave a ligation selection enrichment of 0.212 ± 0.12.
TTGGC gave a ligation selection enrichment of 0.191 ± 0.053.
TTGGG gave a ligation selection enrichment of 0.218 ± 0.023.
With GTGGG the ligation selection enrichment was 0.31 ± 0.013.
In the case of GTGGT, the ligation selection enrichment is reported as 0.274 ± 0.0063.
GTGGC showed a ligation selection enrichment of 0.18 ± 0.0046.
Variant GTGGA has a ligation selection enrichment of 1.76 ± 0.068.
CGTGT was tested, and the ligation selection enrichment was 0.172 ± 0.066.
With CGTGA the ligation selection enrichment was 0.58 ± 0.047.
Work on CGTGG yielded a ligation selection enrichment of 0.261 ± 0.044.
With CGTGC the ligation selection enrichment was 0.196 ± 0.039.
TTCAG showed a ligation selection enrichment of 0.375 ± 0.049.
Variant TTCAT has a ligation selection enrichment of 3.73 ± 1.1.
Variant TTCAA has a ligation selection enrichment of 0.427 ± 0.13.
TTCAC was tested, and the ligation selection enrichment was 0.38 ± 0.036.
TGTTG gave a ligation selection enrichment of 1.1 ± 0.08.
In the case of TGTTA, the ligation selection enrichment is reported as 0.2185 ± 0.00099.
TGTTC gave a ligation selection enrichment of 0.147 ± 0.071.
For TGTTT, the ligation selection enrichment was 0.468 ± 0.2.
CGCTT was tested, and the ligation selection enrichment was 0.126 ± 0.017.
CGGGG was tested, and the ligation selection enrichment was 0.165 ± 0.043.
Variant CGGGT has a ligation selection enrichment of 0.147 ± 0.034.
Work on CGGGC yielded a ligation selection enrichment of 0.0737 ± 0.008.
Variant CGGGA has a ligation selection enrichment of 0.229 ± 0.025.
Work on CGTCG yielded a ligation selection enrichment of 2.71 ± 0.46.
For CGTCA, the ligation selection enrichment was 0.569 ± 0.038.
With CGTCT the ligation selection enrichment was 0.522 ± 0.15.
CGTCC showed a ligation selection enrichment of 0.192 ± 0.059.
In the case of CTCTG, the ligation selection enrichment is reported as 0.298 ± 0.058.
In the case of CTCTA, the ligation selection enrichment is reported as 0.182 ± 0.031.
CTCTC gave a ligation selection enrichment of 0.116 ± 0.0082.
Work on CTCTT yielded a ligation selection enrichment of 0.133 ± 0.075.
ATTAA was tested, and the ligation selection enrichment was 0.524 ± 0.12.
ATTAG showed a ligation selection enrichment of 1.02 ± 0.19.
ATTAC was tested, and the ligation selection enrichment was 0.217 ± 0.042.
CTCAT gave a ligation selection enrichment of 0.104 ± 0.013.
In the case of CTCAG, the ligation selection enrichment is reported as 0.169 ± 0.011.
CTCAA showed a ligation selection enrichment of 0.116 ± 0.038.
CTCAC was tested, and the ligation selection enrichment was 0.0889 ± 0.01.
With GGGTA the ligation selection enrichment was 0.445 ± 0.024.
With GGGTG the ligation selection enrichment was 0.317 ± 0.033.
GGGTC was tested, and the ligation selection enrichment was 0.201 ± 0.006.
Variant GGGTT has a ligation selection enrichment of 0.318 ± 0.011.
CTAGC was tested, and the ligation selection enrichment was 0.123 ± 0.0069.
CTAGA was tested, and the ligation selection enrichment was 0.263 ± 0.038.
Work on CTAGT yielded a ligation selection enrichment of 0.209 ± 0.029.
CTAGG gave a ligation selection enrichment of 0.212 ± 0.06.
With TTGTG the ligation selection enrichment was 0.223 ± 0.015.
Variant TTGTA has a ligation selection enrichment of 0.685 ± 0.11.
TTGTC showed a ligation selection enrichment of 0.271 ± 0.021.
Variant TTGTT has a ligation selection enrichment of 0.311 ± 0.15.
GGCTT showed a ligation selection enrichment of 0.164 ± 0.12.
GGGCT gave a ligation selection enrichment of 0.765 ± 0.27.
GGGCC was tested, and the ligation selection enrichment was 0.243 ± 0.0042.
For GGGCA, the ligation selection enrichment was 0.298 ± 0.033.
GGGCG showed a ligation selection enrichment of 0.626 ± 0.07.
CTATC gave a ligation selection enrichment of 0.144 ± 0.0049.
In the case of CTATT, the ligation selection enrichment is reported as 0.546 ± 0.083.
In the case of CTATA, the ligation selection enrichment is reported as 0.148 ± 0.068.
CTATG gave a ligation selection enrichment of 0.36 ± 0.029.
For CGTAA, the ligation selection enrichment was 0.311 ± 0.023.
In the case of CGTAC, the ligation selection enrichment is reported as 0.447 ± 0.0085.
With CGTAG the ligation selection enrichment was 0.612 ± 0.083.
CGTAT showed a ligation selection enrichment of 4.81 ± 0.52.
Variant CTGAG has a ligation selection enrichment of 0.724 ± 0.054.
CTGAC showed a ligation selection enrichment of 1.07 ± 0.085.
CTGAA gave a ligation selection enrichment of 0.424 ± 0.0081.
Variant CTGAT has a ligation selection enrichment of 22 ± 5.4.
Variant ATGTG has a ligation selection enrichment of 0.566 ± 0.096.
Variant ATGTA has a ligation selection enrichment of 0.206 ± 0.024.
For ATGTC, the ligation selection enrichment was 0.1721 ± 0.0012.
With ATGTT the ligation selection enrichment was 0.166 ± 0.064.
Variant TTGAG has a ligation selection enrichment of 0.82 ± 0.12.
Variant TTGAA has a ligation selection enrichment of 1.56 ± 0.22.
Variant TTGAC has a ligation selection enrichment of 3.32 ± 0.24.
TTGAT gave a ligation selection enrichment of 29.9 ± 7.4.
With ATACG the ligation selection enrichment was 1.5 ± 0.28.
With ATACA the ligation selection enrichment was 0.257 ± 0.032.
ATACC gave a ligation selection enrichment of 0.169 ± 0.016.
ATACT showed a ligation selection enrichment of 0.541 ± 0.11.
TTCGG was tested, and the ligation selection enrichment was 0.397 ± 0.024.
TTCGT was tested, and the ligation selection enrichment was 0.267 ± 0.029.
In the case of TTCGA, the ligation selection enrichment is reported as 2.1 ± 0.11.
For TTCGC, the ligation selection enrichment was 0.331 ± 0.0077.
For TTACT, the ligation selection enrichment was 0.603 ± 0.42.
In the case of TTACA, the ligation selection enrichment is reported as 0.193 ± 0.00088.
Work on TTACC yielded a ligation selection enrichment of 0.142 ± 0.02.
Variant TTACG has a ligation selection enrichment of 0.5128 ± 0.0029.
For TGGAA, the ligation selection enrichment was 5.31 ± 0.71.
TGGAT gave a ligation selection enrichment of 233 ± 62.
TGGAC gave a ligation selection enrichment of 24.7 ± 2.8.
TGGAG gave a ligation selection enrichment of 1.119 ± 0.0088.
Variant CTGGC has a ligation selection enrichment of 0.135 ± 0.021.
CTGGT showed a ligation selection enrichment of 0.18 ± 0.078.
CTGGA gave a ligation selection enrichment of 0.282 ± 0.086.
CTGGG showed a ligation selection enrichment of 0.152 ± 0.051.
In the case of CTACC, the ligation selection enrichment is reported as 0.116 ± 0.021.
CTACG gave a ligation selection enrichment of 0.429 ± 0.14.
Variant CTACA has a ligation selection enrichment of 0.114 ± 0.0039.
Work on CTACT yielded a ligation selection enrichment of 0.785 ± 0.19.
CGGCT gave a ligation selection enrichment of 0.432 ± 0.15.
Work on CGGCA yielded a ligation selection enrichment of 0.177 ± 0.036.
Variant CGGCC has a ligation selection enrichment of 0.134 ± 0.031.
CGGCG was tested, and the ligation selection enrichment was 0.328 ± 0.1.
TTTAG gave a ligation selection enrichment of 0.504 ± 0.034.
In the case of TTTAC, the ligation selection enrichment is reported as 0.218 ± 0.013.
Work on TTTAA yielded a ligation selection enrichment of 0.18 ± 0.0051.
In the case of AGGCC, the ligation selection enrichment is reported as 0.21 ± 0.013.
Work on AGGCG yielded a ligation selection enrichment of 0.527 ± 0.12.
For AGGCA, the ligation selection enrichment was 0.255 ± 0.066.
In the case of AGGCT, the ligation selection enrichment is reported as 0.587 ± 0.3.
GTCGT showed a ligation selection enrichment of 0.297 ± 0.13.
For GTCGG, the ligation selection enrichment was 0.443 ± 0.054.
In the case of GTCGC, the ligation selection enrichment is reported as 0.371 ± 0.033.
For GTCGA, the ligation selection enrichment was 2.56 ± 0.37.
Work on TTCTC yielded a ligation selection enrichment of 0.0957 ± 0.032.
Work on TTCTG yielded a ligation selection enrichment of 0.954 ± 0.089.
TTCTA was tested, and the ligation selection enrichment was 0.183 ± 0.035.
With TTCTT the ligation selection enrichment was 0.119 ± 0.006.
GTAAC gave a ligation selection enrichment of 0.305 ± 0.011.
With GTAAA the ligation selection enrichment was 0.321 ± 0.067.
With GTAAT the ligation selection enrichment was 4.35 ± 0.56.
Work on GTAAG yielded a ligation selection enrichment of 0.509 ± 0.011.
Variant GTGAT has a ligation selection enrichment of 89.4 ± 3.
In the case of GTGAC, the ligation selection enrichment is reported as 4.35 ± 0.17.
GTGAA was tested, and the ligation selection enrichment was 1.7381 ± 0.00037.
Work on GTGAG yielded a ligation selection enrichment of 1.24 ± 0.03.
With GGTCC the ligation selection enrichment was 0.277 ± 0.02.
GGTCA showed a ligation selection enrichment of 0.9187 ± 0.002.
GGTCT gave a ligation selection enrichment of 0.471 ± 0.12.
GGTCG gave a ligation selection enrichment of 2.83 ± 0.25.
Work on ATCAG yielded a ligation selection enrichment of 0.722 ± 0.0083.
For ATCAT, the ligation selection enrichment was 0.391 ± 0.082.
For ATCAA, the ligation selection enrichment was 0.518 ± 0.024.
ATCAC showed a ligation selection enrichment of 0.175 ± 0.028.
